# Data: patent publication US20260061042A1, “POLYNUCLEOTIDE COMPOSITIONS AND USES THEREOF” (Pfizer Inc., priority 2024, published 2026)
# Values joined by “and” are separate entries in the source; they are usually repeats but may differ in a detail not shown here. Equal values may be shown once. “Also recorded” adds a separate entry of the source.
# T1: E. coli CFT073 PapG-II lectin domain PapGLD variant N96S G104A, SEQ ID NO: 16 (Escherichia coli, UniProt A0A0H2VAQ6, G124A/N116S)
# T1 sequence (A0A0H2VAQ6 with tags, fused parts or gaps N116S/G124A): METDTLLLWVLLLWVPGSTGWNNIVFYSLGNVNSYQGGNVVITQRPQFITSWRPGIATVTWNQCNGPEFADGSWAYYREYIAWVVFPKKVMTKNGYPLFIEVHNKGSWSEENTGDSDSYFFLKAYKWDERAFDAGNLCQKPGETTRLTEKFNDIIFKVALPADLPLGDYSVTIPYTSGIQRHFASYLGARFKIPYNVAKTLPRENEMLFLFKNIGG
# Experiments:
# [1] = test system: E. coli strain CFT073 agglutination of human red blood cells; assay: PapG hemagglutination (HA) assay; assay type: cell-based; settings: pre-incubation with E. coli CFT073 WT strain, human RBC
# Protocol: 16. PapG Hemagglutination (HA) Assay
# (§1) A PapG HA assay was developed based on procedures described previously. WT E. coli strain CFT073 bacteria were streaked out from a frozen glycerol stock for single colonies on a tryptic soy blood agar plate. To grow bacteria for use in the HA assay, bacteria were cultured overnight in Luria Bertani liquid media at 37° C. and shaking at 230 rpm. The next morning, bacteria were washed once with 1×PBS and normalized to an OD540 of 1.0 in PBS. 30 μL of bacteria were then placed in a V-bottom 96-well plate (Corning, 3894) and serially diluted across the plate. […] After this incubation, 60 μL of a 1.75% red blood cell (Human Red Blood Cells, Washed, Rockland Immunochemicals R407-0050) solution (diluted from 10% stock using 1×PBS) was added to all the wells in the plate. The plate was incubated for 2 hours at 4° C. and then imaged using a light box and camera or ImageQuant System. To collect quantitative data, assay plates were analyzed using a Clariostar instrument. Absorbance was measured at a wavelength of 540 nm, which was the maximum absorbance observed using an RBC only control well, and a read diameter of 4 mm within each well. Absorbance was normalized using blank controls (1×PBS only).
# 7. Development of a Hemagglutination (HA) Assay as a Functional Assay to Evaluate Sera from PapG Immunized Animals. […]
# [2] = target: T1, E. coli CFT073 PapG-II lectin domain PapGLD variant N96S G104A, SEQ ID NO: 16; assay: SYPRO orange thermal shift with GbO3; assay type: binding; settings: shift in melting temperature in the presence of GbO3 vs apo; 3 replicates; PBS pH 7.4, 4% DMSO
# Protocol: (§2) PapG proteins were added to assay buffer (consisting of 4% DMSO, 1:1000 dilution of SYPRO orange (Invitrogen S6650) in PBS pH 7.4) at a final concentration of […]. Melt curves were analyzed in a QuantStudio 6 Real-time PCR system (ThermoFisher) using a dissociation protocol from 25° C. to 99° C., at 0.05° C./second. ROX was specified as the reporter.
# (§3) The thermal stability of PapG WT and mutant proteins were determined using a SYPRO orange thermal shift-based differential scanning fluorimetry assay, wherein Tm designates the temperature at which 50% of the protein is unfolded. Non-covalent ligands often stabilize protein targets upon specific binding, resulting in an increase in protein melting temperature. Tm were therefore determined in the presence and absence of GbO3 for PapG, and the difference in Tm (ΔTm) of protein in the presence of ligand relative to the apo form was calculated.
# [3] = test system: E. coli strain CFT073 (PapG-dependent agglutination of human red blood cells); assay: PapG hemagglutination (HA) assay; assay type: cell-based, Escherichia coli CFT073; human red blood cells; settings: pre-incubation of E. coli CFT073 WT strain with GbO3, then human RBCs
# Protocol: as §1
# PapG mediates the ability of E. coli to agglutinate human red blood cells (RBC).
# [4] = PapG Luminex ligand binding assay with globoside GbO4; settings: result in words
# Protocol: 9. PapG Ligand Binding Assay with Globoside GbO4
# To determine the ability of PapGLD mutants to bind the porcine derived globotetraosyl ceramide ligand GalNAc-Gal-Gal-Glc-ceramide (GbO4), a Luminex ligand binding assay was developed. Surfactant Protein-A (SP-A) was coupled to the surface of MagPlex beads by EDC/NHS, to capture the lipid tail of the globotetraosyl ceramide. The Globotetraosyl ceramide/SP-A beads were incubated with an eight-point threefold titration of PapG in a 96 well flat bottom white plate with final volume of 100 microliters of 50 mM HEPES PH 7.4, 10 mM NaCl, 0.0005% Tween 20 shaking at 300 rpm, 4° C. overnight. After 20-24 hours the ligand binding plates were read on a FlexMap 3D plate reader for measurement of well-bead region specific MFI. Ligand binding equilibrium dissociation constants (Kd) were calculated assuming one site specific binding and interpolated using non-linear curve fitting (GraphPad Prism) as the ligand concentration needed to achieve half-maximal binding. The Luminex derived apparent Kd values are based on approximately fifty bead counts per assay sample.
# (§4) Binding of PapG proteins to GbO2 or GbO4 ligands was evaluated using a Luminex platform wherein ligands were coupled to MagPlex beads via surfactant protein A (for […]) or directly using […] conjugation (for […]). This assay was used to rank order binding affinities of the mutants, reported as Kd values interpolated from protein antigen titration curves (Table 7).
# [5] = Thermal shift in the presence of GbO3; assay type: binding; settings: in the presence of GbO3 relative to the apo form
# Protocol: as §2
# The thermal stability of PapG WT and mutant proteins were determined using a SYPRO orange thermal shift-based differential scanning fluorimetry assay, wherein Tm designates the temperature at which 50% of the protein is unfolded. Non-covalent ligands often stabilize protein targets upon specific binding, resulting in an increase in protein melting temperature.
# [6] = Thermal shift (SYPRO orange) melting temperature, apo form; assay type: physicochemical; settings: apo state, PBS pH 7.4
# Protocol: as §2, §3
# [7] = PapG Luminex ligand binding assay with globoside compound GbO2Mpo; settings: result in words
# Protocol: 10. PapG Ligand Binding Assay with Globoside Compound GbO2Mpo
# To determine Luminex ligand binding affinities of PapG mutants for the synthetic globoside ligand Gal-Glc-phenoxy-octyl-amine (GbO2Mpo), a Luminex ligand binding assay was developed based on the direct coupling of the amine reactive globoside ligand to the EDC/NHS activated carboxylic surface of MagPlex beads. Synthesis of GbO2Mpo ligand with an octyl amine linker (for coupling to beads) was performed via methods described previously. The GbO2Mpo beads were incubated with an 8-point, threefold titration of PapG in a 96-well flat bottom white plate with final volume of 100 μl of 50 mM HEPES pH 7.4, 10 mM NaCl, 0.0005% Tween 20 shaking at 300 rpm, 4° C. overnight. After 20-24 hours the ligand binding plates were read on a FlexMap 3D plate reader for measurement of well-bead region specific MFI.
# as §4
Molecule,binding to GbO4 ligand [4],ΔTm (Average) [5] [°C],Tm (Ave.) [6] [°C],other results
Globotriaosylceramide [GbO3] [listing 1 of 2 here],–,–,–,inhibition of hemagglutination [1]: efficiently blocks agglutination of RBCs; also recorded: concentration-dependent inhibition of hemagglutination
Globotriaosylceramide [GbO3] [listing 2 of 2 here],–,–,–,ΔTm (Average) [2]: < 0.5 °C and 0.22 °C; inhibition of hemagglutination (in words) [3]: efficiently blocks agglutination of RBCs; also recorded: concentration-dependent inhibition of hemagglutination
PapG^LD N96S R170A: PapG lectin domain N96S with R170A ligand binding site mutation; SEQ ID NO: 23 (protein) METDTLLLWVLLLWVPGSTGWNNIVFYSLGNVNSYQGGNVVITQRPQFITSWRPGIATVTWNQCNGPEFADGSWAYYREYIAWVVFPKKVMTKNGYPLFIEVHNKGSWSEENTGDSDSYFFLKGYKWDERAFDAGNLCQKPGETTRLTEKFNDIIFKVALPADLPLGDYSVTIPYTSGIQRHFASYLGAAFKIPYNVAKTLPRENEMLFLFKNIGG,prevent binding to GbO4; also recorded: lower the binding affinity; also recorded: eliminate ligand binding,0.33,55.83,–
PapG^LD N96S K172A: PapG lectin domain N96S with K172A ligand binding site mutation; SEQ ID NO: 24 (protein) METDTLLLWVLLLWVPGSTGWNNIVFYSLGNVNSYQGGNVVITQRPQFITSWRPGIATVTWNQCNGPEFADGSWAYYREYIAWVVFPKKVMTKNGYPLFIEVHNKGSWSEENTGDSDSYFFLKGYKWDERAFDAGNLCQKPGETTRLTEKFNDIIFKVALPADLPLGDYSVTIPYTSGIQRHFASYLGARFAIPYNVAKTLPRENEMLFLFKNIGG,prevent binding to GbO4; also recorded: reduced binding; also recorded: lower the binding affinity; also recorded: eliminate ligand binding,0.42,56.38,binding to GbO2 ligand [7]: reduced binding
PapG^LD N96S G104A: PapG lectin domain N96S with G104A ligand binding site mutation; SEQ ID NO: 16 (protein) METDTLLLWVLLLWVPGSTGWNNIVFYSLGNVNSYQGGNVVITQRPQFITSWRPGIATVTWNQCNGPEFADGSWAYYREYIAWVVFPKKVMTKNGYPLFIEVHNKGSWSEENTGDSDSYFFLKAYKWDERAFDAGNLCQKPGETTRLTEKFNDIIFKVALPADLPLGDYSVTIPYTSGIQRHFASYLGARFKIPYNVAKTLPRENEMLFLFKNIGG,prevent binding to GbO4; also recorded: lower the binding affinity; also recorded: eliminate ligand binding,–,64.54,–
PapG^LD N96S W107A: PapG lectin domain N96S with W107A ligand binding site mutation; SEQ ID NO: 22 (protein) METDTLLLWVLLLWVPGSTGWNNIVFYSLGNVNSYQGGNVVITQRPQFITSWRPGIATVTWNQCNGPEFADGSWAYYREYIAWVVFPKKVMTKNGYPLFIEVHNKGSWSEENTGDSDSYFFLKGYKADERAFDAGNLCQKPGETTRLTEKFNDIIFKVALPADLPLGDYSVTIPYTSGIQRHFASYLGARFKIPYNVAKTLPRENEMLFLFKNIGG,prevent binding to GbO4; also recorded: lower the binding affinity; also recorded: eliminate ligand binding,0.22,62.64,–
PapG^LD N96S G122A: PapG lectin domain N96S with G122A putative conformation stabilizing mutation; SEQ ID NO: 20 (protein) METDTLLLWVLLLWVPGSTGWNNIVFYSLGNVNSYQGGNVVITQRPQFITSWRPGIATVTWNQCNGPEFADGSWAYYREYIAWVVFPKKVMTKNGYPLFIEVHNKGSWSEENTGDSDSYFFLKGYKWDERAFDAGNLCQKPAETTRLTEKFNDIIFKVALPADLPLGDYSVTIPYTSGIQRHFASYLGARFKIPYNVAKTLPRENEMLFLFKNIGG,reduced binding,–,–,–
